We go through 2 molecules from patent US9809653B2, “Anti-LAMP1 antibodies and antibody drug conjugates, and uses thereof” (SANOFI, priority 2012, dated 2017).

Test [1] concerns the target T1, LAMP1 expressed on the surface of advanced human primary colon tumor CR-IGR-034P (Homo sapiens, UniProt P11279).
T1 construct: endogenous in cells; host or cells: enzymatically dissociated patient-derived xenograft tumour cells (e.g. CR-IGR-034P, LUN-NIC-014P, BRE-IGR-0159) and tumour cell lines
T1 sequence (P11279 29-417): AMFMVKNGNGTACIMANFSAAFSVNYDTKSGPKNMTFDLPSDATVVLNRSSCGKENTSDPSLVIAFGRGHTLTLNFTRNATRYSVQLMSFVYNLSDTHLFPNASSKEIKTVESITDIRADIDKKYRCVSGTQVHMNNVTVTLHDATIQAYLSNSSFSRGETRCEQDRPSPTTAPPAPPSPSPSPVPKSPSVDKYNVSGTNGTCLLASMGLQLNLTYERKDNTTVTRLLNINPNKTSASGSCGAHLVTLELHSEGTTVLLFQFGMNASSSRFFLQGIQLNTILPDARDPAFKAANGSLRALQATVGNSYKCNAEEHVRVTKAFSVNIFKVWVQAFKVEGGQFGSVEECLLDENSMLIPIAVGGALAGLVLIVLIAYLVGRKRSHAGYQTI
Nature of the test: Apparent affinity to human primary colon tumor PDX by flow cytometry. It counts as binding. The note with it: dissociated PDX tumor cells, 45 min at 4° C., read-out: EC50 obtained with CR-IGR-034P. As to the method: Advanced human primary colon tumor CR-IGR-034P was obtained from Patient-derived xenograft in mice. Tumor CR-IGR-034P was enzymatically dissociated using collagenase Type IV (Invitrogen; #17104-019) and deoxyribonuclease I (Invitrogen; #18047-019) for 1 h at 4° C. Cell viability was estimated by Viacount application using Guava® easyCyte™ 8HT Flow Cytometry System. […] 100 μL/well of goat anti-mouse IgG conjugated with Alexa647 (Invitrogen; #A2135) or goat anti-human IgG conjugated with Alexa488 (Invitrogen; #A11013) was added for 45 min at 4° C. and washed three times with PBS 1% BSA. The antibody binding was evaluated after centrifugation and resuspension of cells by adding 200 μl/well PBS 1% BSA and read using Guava® easyCyte™ 8HT Flow Cytometry System. EC50 values were estimated using BIOST@T-SPEED software. EC50 values obtained with the advanced human primary colon tumor CR-IGR-034P are listet in Table 3.

The target of test [2] is T2, cell surface LAMP1 on Patient-derived tumor xenografts and tumor cell lines (Homo sapiens, UniProt P11279).
T2 construct: endogenous in cells; host or cells: enzymatically dissociated patient-derived xenograft tumour cells (e.g. CR-IGR-034P, LUN-NIC-014P, BRE-IGR-0159) and tumour cell lines
T2 sequence (P11279 29-417): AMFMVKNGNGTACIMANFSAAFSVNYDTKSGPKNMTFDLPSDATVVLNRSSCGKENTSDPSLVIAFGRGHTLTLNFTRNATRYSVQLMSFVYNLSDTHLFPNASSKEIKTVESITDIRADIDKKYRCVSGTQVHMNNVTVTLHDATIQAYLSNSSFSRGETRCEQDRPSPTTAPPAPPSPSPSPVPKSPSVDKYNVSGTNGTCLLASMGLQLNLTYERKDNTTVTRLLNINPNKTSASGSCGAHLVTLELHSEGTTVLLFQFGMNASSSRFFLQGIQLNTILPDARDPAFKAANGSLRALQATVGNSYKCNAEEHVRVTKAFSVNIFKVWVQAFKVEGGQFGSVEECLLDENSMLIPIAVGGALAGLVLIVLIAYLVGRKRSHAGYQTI
Nature of the test: Antibody binding capacity (ABC) by FACS on patient-derived xenografts and tumor cell lines. The protocol:
Antibody binding capacity of antibody was determined using Mouse IgG Calibrator kit (Biocytex #7208) or Human IgG Calibrator Kit (Biocytex #CP010) according to the manufacturer's instructions.
The panel of tumor cells comprises Patient-derived tumor xenografts from different origins and tumor cell lines. FIG. 2 illustrates the expression profile and Table 4 summarizes the antibody binding capacity results.
The panel of tumor cells comprises Patient-derived tumor xenografts from different origins and tumor cell lines.

Another test concerns the target T3, Mouse LAMP1 (Mus musculus, UniProt P11438).
T3 construct: made in house; host or cells: HEK293 (293-F), transient expression, IMAC-purified
T3 sequence (P11438 with tags, fused parts or gaps): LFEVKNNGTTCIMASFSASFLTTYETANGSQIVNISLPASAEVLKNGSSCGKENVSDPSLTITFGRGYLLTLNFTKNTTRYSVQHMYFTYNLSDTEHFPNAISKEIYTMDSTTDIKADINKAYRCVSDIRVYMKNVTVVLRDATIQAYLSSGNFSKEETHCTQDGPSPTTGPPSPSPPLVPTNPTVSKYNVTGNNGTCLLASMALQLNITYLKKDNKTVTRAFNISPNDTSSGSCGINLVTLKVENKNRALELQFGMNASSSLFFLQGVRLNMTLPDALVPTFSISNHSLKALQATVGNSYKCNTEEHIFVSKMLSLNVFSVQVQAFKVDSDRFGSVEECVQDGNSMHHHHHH
Briefly: ELISA on mouse LAMP1 extracellular domain. The test is classed as binding. From the text: The high level of glycosylation of the antigen required a specific approach to determine the binding site of the anti-LAMP1 mAbs on LAMP1. […] This absence of binding was used to design several chimeric LAMP1 proteins in which one or several of the LAMP1 domains (Loop1-Loop4) in the human construct were replaced by the murine counterpart. The absence of binding once the binding site of the antibody was replaced by the murine counterpart allowed for identification of the antibody binding side.
Secreted LAMP1 proteins described in example 6.2 were used to identify the binding domain to anti-LAMP1 mAbs by ELISA.
On the technique in general: In an ELISA, binding on a coated surface is turned into a signal by an enzyme label.

The next test deals with T4, mLAMP1_ΔGYQTI (Mus musculus, UniProt P11438).
T4 construct: expressed in transfected cells; host or cells: 293-F (HEK293-derived), transient transfection, plasmid pXL6009
T4 sequence (P11438 with tags, fused parts or gaps limits assumed): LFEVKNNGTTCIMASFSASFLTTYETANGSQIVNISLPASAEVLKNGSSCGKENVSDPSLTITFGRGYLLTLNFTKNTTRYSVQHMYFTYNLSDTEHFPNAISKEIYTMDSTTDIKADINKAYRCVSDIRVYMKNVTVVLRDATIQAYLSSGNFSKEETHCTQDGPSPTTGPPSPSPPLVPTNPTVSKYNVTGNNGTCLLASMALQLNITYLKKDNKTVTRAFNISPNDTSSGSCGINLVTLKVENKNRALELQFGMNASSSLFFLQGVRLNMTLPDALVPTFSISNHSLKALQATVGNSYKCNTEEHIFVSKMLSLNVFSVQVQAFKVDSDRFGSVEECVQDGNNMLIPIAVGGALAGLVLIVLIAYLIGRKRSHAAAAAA
Briefly: Binding onto membrane-anchored murine LAMP1 (293-F cells) by flow cytometry. To be noted: pXL6009 mLAMP1_ΔGYQTI. The text has this:
Different LAMP1 proteins were expressed at the cell membrane of HEK293 cells after transient expression from mammalian plasmids encoding the entire coding sequence of LAMP1 deleted of the intracellular lysosome-targeting motif GYQTI and substituted by a 5-Ala repeat sequence. Mammalian plasmids had similar expression signals as plasmids used to produce recombinant LAMP1 described in example 6.2. Table 14 below lists all the plasmids that were designed in order to confirm the results obtained with soluble LAMP1 protein by ELISA in example 6.3 and further characterize the binding domains of the anti-LAMP1 mAbs.
Each expression plasmid described in example 6.4 was complexed with 293Fectin™ in suspension-cultivated 293-F cells as using the protocol outlined in example 6.2. Two days post transfection cells were processed, analyzed by flow cytometry (Guava® easyCyte™ 8HT) as mentioned in example 4.7, and the mean fluorescence was recorded. This fluorescence represents a semi-quantitative assessment of binding.
(In general: A flow cytometer gives signals particle by particle.)

Entries after “also recorded” stand apart in the source; their conditions may differ.

For orientation: EC50 means the concentration at which the effect is half-maximal.

B1: MAb2: murine monoclonal anti-LAMP1 antibody, VH SEQ ID NO: 8, VL SEQ ID NO: 12 (antibody, V domains shown)
VH: QVQLQQSAAELARPGASVKMSCKASGYTFTSYTMHWVKQRPGQGLEWIGYFNPSSGYPEYNQKFKDKTTLTADKSSNTAFIQLNSLTSEDSAVYYCSRGYYYGSRGYALDFWGQGASVTVSS
VL: NIVLTQSPVSLAVSLGQRATISCRASESVDINGNTFMHWYQQKPGQSPKLVIYAASNIESGVPARFSGSGSSTDFTFTIDPVEADDVATYYCQQNIEDPWTFGGGTKVEIK
modifications: antibod fragment; antibody fragment
Take B1: the EC50 in test [1] amounted to 14 nM. The “Antibody Binding Capacity (ABC)” value in test [2] (CR-IGR-034P/colorectal PDX) is listed as 180,000; in test [2] (CR-LRB-003P/colorectal PDX), 22 000; in test [2] (CR-LRB-010P/colorectal PDX), 95,000; in test [2] (Colo205/colon cell line), 4,000; in test [2] (LS174T/colon cell line), 3,600; in test [2] (LUN-NIC-014/lung PDX) it was 102,000. The “Antibody Binding Capacity (ABC)” value in test [2] (LUN-NIC-025/lung PDX) is given as 27,000; in test [2] (OVA-IGR-0022/ovary PDX) it was 60,000; in test [2] (STO-IND-006/stomach PDX), 64,000; in test [2] (SW480/colon cell line) it was 1,700. In addition, the “EC50 (nM) Mouse LAMP1” value in the test with Mouse LAMP1 was “do not show any binding; also recorded: No binding”. Moreover, the Binding call with mLAMP1_ΔGYQTI (Table 17 Experiment no1) and in the test with mLAMP1_ΔGYQTI (Table 18) was “No binding” in each case. Moreover, the Mean fluorescence with mLAMP1_ΔGYQTI (Table 17 Experiment no1) was found to be 21; in the test with mLAMP1_ΔGYQTI (Table 18), 27.

B2: MAb1: murine monoclonal anti-LAMP1 antibody, VH SEQ ID NO: 1, VL SEQ ID NO: 5 (antibody, V domains shown)
VH: QVQLQQSGAELVKPGASVKMSCKASGYIFTNYNIHWVKKSPGQGLEWIGAIYPGNGDAPYSQKFKDKATLTADKSSSTTYMQLSRLTSEDSAVYYCVRANWDVAFAYWGQGTLVSVSA
VL: DIQMTQSPPSLSASLGGKVTITCKASQDIDRYMAWYQDKPGKGPRLLIHDTSTLQPGIPSRFSGSGSGRDYSFSISNLEPEDIATYYCLQYDNLWTFGGGTKLEIK
modifications: Antibody Fragment; antibody fragment
On to B2, for which the EC50 in test [1] amounted to 5 nM. Also, the “Antibody Binding Capacity (ABC)” value in test [2] (CR-IGR-034P/colorectal PDX) is 230,000; in test [2] (CR-LRB-003P/colorectal PDX), 25 000; in test [2] (CR-LRB-010P/colorectal PDX), 140,000; in test [2] (Colo205/colon cell line), 6,000; in test [2] (LS174T/colon cell line) it was 6,000; in test [2] (LUN-NIC-014/lung PDX) it was 104,000. The “Antibody Binding Capacity (ABC)” value is 33,000 in test [2] (LUN-NIC-025/lung PDX), 67,000 in test [2] (OVA-IGR-0022/ovary PDX), 90,000 in test [2] (STO-IND-006/stomach PDX) and 2,500 in test [2] (SW480/colon cell line). For the same molecule, in the test with Mouse LAMP1, the “EC50 (nM) Mouse LAMP1” value is recorded as “do not show any binding; also recorded: No binding”. The Binding call with mLAMP1_ΔGYQTI (Table 17 Experiment no1) and with mLAMP1_ΔGYQTI (Table 17 Experiment no2) was “No binding” throughout. Besides, the results for the Mean fluorescence with mLAMP1_ΔGYQTI (Table 17 Experiment no1), with mLAMP1_ΔGYQTI (Table 17 Experiment no2) and with mLAMP1_ΔGYQTI (Table 18) were 4, 2 and 13, respectively.
